Source: patent publication US20200057058A1 (MIT, published 2020)

What was measured:
[1] = molecular target: monomeric streptavidin variant mSA2; test: fluorescent binding assay, labeled mSA2 in PBS on the monolayer, 4 h exposure
[2] = molecular target: monomeric streptavidin variant mSA2; test: fluorescent binding curve, labeled mSA2 in 50% blood serum, 4 h; quadratic fit
[3] = molecular target: monomeric streptavidin variant mSA2; test: fluorescent binding assay, labeled mSA2; signal three standard deviations above blank
Method: (§1) The binding function of rcSso7d.SA oligomer-PNIPAM thin films was measured using fluorescently-labeled monomeric streptavidin (mSA2) and fluorescently-labeled streptavidin (SA). Details for the expression, purification, and fluorescent labeling of mSA2 are provided below. Samples were prepared by serial dilution of SA or mSA2 in PBS (pH 7.4), human urine (diluted to 50% v/v in PBS, pH 7.4), or blood serum (obtained as the supernatant by centrifuging whole blood at 1500×g for 10 minutes, then diluted to 50% v/v in PBS, pH 7.4). 0.5 μL drops of solutions containing serially diluted fluorescent mSA2 and fluorescent SA samples in PBS (pH 7.4) were gently applied to the surface of each bioconjugate thin film. Films were incubated in a sealed chamber saturated with water vapor at room temperature to prevent to prevent drying of the applied fluorescent samples. After 1 hour, films were thoroughly rinsed with water for 10 seconds (a time determined to be sufficient to remove unbound molecules from the film, see FIG. 33, dried under filtered airflow, and immediately analyzed for fluorescent signal. Fluorescence microscopy images were acquired at 4× magnification using a Cy5 filter set and exposure time of 5000 ms on an Olympus IX-81 inverted fluorescence microscope with an AxioCam HRC CCD camera. Fluorescent intensity was calculated using ImageJ software⁶⁷ by determining the average fluorescent signal in a rectangular area of the fluorescent image free of defects and occupying no less than half of the full sample application area.
Oligomerization of rcSso7d.SA also brings about a decrease in biosensor limit of detection (LOD). […] While all thin films display improvements up to threefold in LOD over the monolayer, the trend in LOD with respect to degree of oligomerization is non-monotonic. The primary factor that is expected to affect LOD in the studied biosensors is number of binding sites, as more binding sites enable a greater number of analyte molecules to be captured and shifts analyte-receptor equilibrium in favor of binding events.

streptavidin [4] = molecular target: T1, streptavidin (UniProt P22629 37-163, limits assumed); test: apparent Kd (Kd,app); fluorescent binding curve, labeled SA in 50% blood serum, 4 h; quadratic fit
T1 construct: It was used without a stated label in the sandwich assays; also called SA

[5] = molecular target: monomeric streptavidin variant mSA2; test: apparent Kd (Kd,app); fluorescent binding curve, labeled mSA2 in 50% blood serum, 4 h; quadratic fit
[6] = molecular target: monomeric streptavidin variant mSA2; test: apparent Kd (Kd,app); fluorescent binding curve, labeled mSA2 in PBS, 4 h exposure; quadratic fit
Method: as §1, with “After 1 hour, films were thoroughly rinsed with water for 10 seconds (a time determined to be sufficient to remove unbound molecules from the film, see FIG. 33, dried under filtered airflow, and immediately analyzed for fluorescent signal.” left out
To evaluate how the apparent size-based diffusion properties translated to biosensing capabilities, binding curves were measured using SA and mSA2 solutions in buffer. Binding curves were fit with a quadratic model that is a function of three parameters: the average MFI per binding event a, the total concentration of binding sites [P]T, and the apparent dissociation constant K_{d,app} describing the binding equilibrium between analyte and binding sites within the thin film.

[7] = molecular target: monomeric streptavidin variant mSA2; test: apparent Kd (Kd,app); fluorescent binding curve, labeled mSA2 in 50% urine, 4 h; quadratic fit
[8] = molecular target: monomeric streptavidin variant mSA2; test: fluorescent binding assay, labeled mSA2 in PBS on monolayer; quadratic curve fit
Method: as §1, with “Films were incubated in a sealed chamber saturated with water vapor at room temperature to prevent to prevent drying of the applied fluorescent samples.” left out, “area. […]” for “area.”

[9] = molecular target: monomeric streptavidin variant mSA2; test: fluorescent binding curve, labeled mSA2 in 50% urine, 4 h; quadratic fit
streptavidin [10] = molecular target: T1, streptavidin; test: apparent Kd (Kd,app); fluorescent binding curve, labeled SA in 50% urine, 4 h; quadratic fit

T1 sequence (P22629 37-163 limits assumed): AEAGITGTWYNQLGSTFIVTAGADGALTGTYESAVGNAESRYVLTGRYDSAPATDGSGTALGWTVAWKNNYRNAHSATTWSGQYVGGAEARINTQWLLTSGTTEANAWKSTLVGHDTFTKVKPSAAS

B1: rcSso7d.SA monolayer (designed binder)
chain: MGSIHHHHHHSSGLVPRGSHMCATVKFTYQGEEKQVDISKIKIVARDGQYIDFKYDEGGGAYGYGWVSEKDAPKELLQMLEKQ
modifications: EDC/NHS-activated protein coupled to an amine-functionalized silicon wafer
notes: also called monomeric rcSso7d.SA; surface-immobilized rcSso7d.SA
[1]
  EC50 (read off the curve): ~3 µM
[2]
  [P]T (total concentration of binding sites): 0.4 nM
[3]
  limit of detection (LOD): 360 nM
Streptavidin [4]
  Kd: 40 µM
[5]
  Kd: 62 µM
[6]
  Kd: 3 µM
[7]
  Kd: 50 µM
[8]
  Kd: 2 µM
[9]
  [P]T (total concentration of binding sites): 0.4 nM
Streptavidin [10]
  Kd: 47 µM
